From paper PMC7058303

Biological target: Sus1 from S. cerevisiae (recombinant) (Saccharomyces cerevisiae) (UniProt Q6WNK7)
Experiment: SEC; Superdex 75 10/300 GL, calibrated with molecular weight markers; non-dissociating conditions; elution volume 12 ml

## Sus1 from S. cerevisiae (recombinant) (from UniProt Q6WNK7 1-96) (natural protein)
  stoichiometry N: 3
